The target of experiment [1] is T1, hCLEC2D (human, UniProt Q9UHP7 1-191).
T1 construct: Overexpressed on HEK293 or K562 cells; the same id is used for endogenous CLEC2D on NALM6 and Raji cells; also called LLT1
T1 sequence: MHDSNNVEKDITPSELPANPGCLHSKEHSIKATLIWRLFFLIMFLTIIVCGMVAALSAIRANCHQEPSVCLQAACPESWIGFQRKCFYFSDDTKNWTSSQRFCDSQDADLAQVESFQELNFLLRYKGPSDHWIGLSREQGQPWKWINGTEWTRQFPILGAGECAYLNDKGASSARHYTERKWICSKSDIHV
The experiment in a line: flow cytometry, HEK293 transfectants, 100 nM antibody. (Flow cytometry measures light scatter and fluorescence of single cells or particles in a stream.)
Description: (§1) For the antibody binding assay, all cell lines were washed in phosphate-buffered saline with 0.1% bovine serum albumin (PBSA) and seeded in a 96 well plate at a density of 4×10⁴ cells per well. Washed cells were resuspended in 100 nM of antibody (a saturating concentration to measure maximum binding on cells) and incubated at room temperature for 30 minutes. […] Cells were analyzed by flow cytometry with a Thermo Fisher Attune flow cytometer.
(§2) Data were analyzed using FlowJo software. MFI for each sample was calculated and exported into Graphpad Prism.

Experiment [2] addresses T2, hKLRF1 (human, UniProt Q9NZS2 1-231).
T2 construct: Overexpressed on HEK293 cells
T2 sequence: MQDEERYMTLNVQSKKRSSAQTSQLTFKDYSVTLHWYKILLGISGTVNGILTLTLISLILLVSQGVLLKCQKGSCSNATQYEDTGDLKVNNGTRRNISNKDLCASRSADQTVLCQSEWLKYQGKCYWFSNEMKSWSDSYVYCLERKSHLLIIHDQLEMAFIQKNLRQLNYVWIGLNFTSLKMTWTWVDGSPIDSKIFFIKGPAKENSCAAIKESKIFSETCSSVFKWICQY
The experiment is described as above.
Description: as §1, §2

The target in experiment [3] is T3, hKLRF2 (human, UniProt D3W0D1 1-207).
T3 construct: Overexpressed on HEK293 cells
T3 sequence: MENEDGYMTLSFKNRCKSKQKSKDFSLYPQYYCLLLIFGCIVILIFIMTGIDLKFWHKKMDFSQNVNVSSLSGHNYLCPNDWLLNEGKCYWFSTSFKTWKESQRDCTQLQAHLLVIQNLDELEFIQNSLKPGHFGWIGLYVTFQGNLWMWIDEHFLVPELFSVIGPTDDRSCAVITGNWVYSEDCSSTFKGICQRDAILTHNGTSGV
The description is as above.
Description: as §1, §2

Experiment [4] concerns the target T4, hCLEC12B (human, UniProt Q2HXU8 1-276).
T4 construct: Overexpressed on HEK293 cells
T4 sequence: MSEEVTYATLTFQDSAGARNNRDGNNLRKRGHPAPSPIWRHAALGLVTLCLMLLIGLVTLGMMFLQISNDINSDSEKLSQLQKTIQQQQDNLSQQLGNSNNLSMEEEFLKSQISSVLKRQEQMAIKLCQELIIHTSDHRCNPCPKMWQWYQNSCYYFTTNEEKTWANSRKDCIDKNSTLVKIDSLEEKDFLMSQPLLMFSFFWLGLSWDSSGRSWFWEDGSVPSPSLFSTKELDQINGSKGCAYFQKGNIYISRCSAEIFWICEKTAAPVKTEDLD
Described as above.
Description: as §1, §2

Experiment [5] addresses T2, hKLRF1. The experiment in a line: flow cytometry; 100 nM antibody on HEK293 cells expressing KLRF1; Alexa Fluor 647 anti-human IgG; MFI.
Description: as §1, §2
For experiment [6], the target named is T3, hKLRF2. The experiment can be described thus: flow cytometry; 100 nM antibody on HEK293 cells expressing KLRF2; Alexa Fluor 647 anti-human IgG; MFI.
Description: as §1, §2
The target in experiment [7] is T1, hCLEC2D. The experiment in a line: flow cytometry; 100 nM antibody on HEK293 cells expressing CLEC2D; Alexa Fluor 647 anti-human IgG; MFI.
Description: as §1, §2
Experiment [8] has as its target T4, hCLEC12B. The experiment in a line: flow cytometry; 100 nM antibody on HEK293 cells expressing CLEC12B; Alexa Fluor 647 anti-human IgG; MFI.
Description: as §1, §2
The target in the next experiment is T5, human HSP70 (human, UniProt P0DMV8 1-641).
T5 construct: polyspecificity reagent
T5 sequence (P0DMV8 whole entry): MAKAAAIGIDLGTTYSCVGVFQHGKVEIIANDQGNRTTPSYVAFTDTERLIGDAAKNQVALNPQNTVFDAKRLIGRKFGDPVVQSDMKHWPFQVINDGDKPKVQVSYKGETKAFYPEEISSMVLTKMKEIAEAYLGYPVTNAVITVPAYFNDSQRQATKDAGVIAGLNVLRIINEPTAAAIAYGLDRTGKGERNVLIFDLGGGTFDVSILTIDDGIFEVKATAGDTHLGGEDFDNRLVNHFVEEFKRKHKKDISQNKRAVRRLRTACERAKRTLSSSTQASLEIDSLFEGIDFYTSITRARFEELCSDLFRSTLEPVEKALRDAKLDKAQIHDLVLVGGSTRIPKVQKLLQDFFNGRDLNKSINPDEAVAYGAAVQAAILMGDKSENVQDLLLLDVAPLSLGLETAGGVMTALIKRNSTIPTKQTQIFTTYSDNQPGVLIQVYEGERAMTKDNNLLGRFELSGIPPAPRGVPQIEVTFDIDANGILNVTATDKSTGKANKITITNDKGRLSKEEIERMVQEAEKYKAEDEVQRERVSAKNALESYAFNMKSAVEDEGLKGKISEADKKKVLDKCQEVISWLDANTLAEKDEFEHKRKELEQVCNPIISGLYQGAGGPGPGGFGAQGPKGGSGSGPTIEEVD
The experiment can be described thus: polyspecificity ELISA, coated HSP70, 100 nM antibody. Background: An ELISA detects its analyte on a solid surface through an enzyme-linked reagent.

The results in this text go back to patent US20250243281A1 (IMMUNITAS THERAPEUTICS, published 2025).
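Throughout, for % of CD161 binding: antibody applied at a saturating level and incubated with cells for 30 min at room temperature.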

B1: Ab8 (antibody, human IgG1, V domains shown)
VH: EVQLLESGGGLVQPGGSLRLSCAASGFTFGTFAMSWVRQAPGKGLEWVSAISGVGGTTYYADSVKGRFTISRDNSKNTLYLQMNSLRAEDTAVYYCAKPLDSSFWADFDLWGRGTLVTVSS
VL: DIQLTQSPSSVSASVGDRVTITCRASQTISSWLAWYQQKPGKAPKLLIYAASSLQSGVPSRFSGSGSGTDFTLTISSLQPEDFATYYCQQQSVLPITFGGGTKVEIK
notes: IgG purified from yeast culture
For B1, the “% of CD161 binding” value with hCLEC2D [1] was 0.846%; with hKLRF1 [2], 0.031%; with hKLRF2 [3], 0.038%; with hCLEC12B [4], 0.049%. Further, the binding result in the experiment with hKLRF1 [5], with hKLRF2 [6], with hCLEC2D [7] and with hCLEC12B [8] was “no binding (tested: 100 nM)” in each case.

B2: Ab9 (antibody, human IgG1, V domains shown)
VH: EVQLLESGGGLVQPGGSLRLSCAASGFTFSPYAMSWVRQAPGKGLEWVSAISASGGTTYYADSVKGRFTISRDNSKNTLYLQMNSLRAEDTAVYYCAKPLDSSFWADFDLWGRGTLVTVSS
VL: DIQLTQSPSSVSASVGDRVTITCRASQGISSWLAWYQQKPGKAPKLLIYAASSLQSGVPSRFSGSGSGTDFTLTISSLQPEDFATYYCQQHSVLPITFGGGTKVEIK
Regarding B2, the “% of CD161 binding” value in the experiment with hCLEC2D [1] stood at 0.808%; in the experiment with hKLRF1 [2], 0.042%; in the experiment with hKLRF2 [3] it was 0.028%; in the experiment with hCLEC12B [4], 0.025%. For the same molecule, the binding result with hKLRF1 [5], with hKLRF2 [6], with hCLEC2D [7] and with hCLEC12B [8] was “no binding (tested: 100 nM)” each time.

B3: Ustekinumab (antibody, V domains shown)
VH: EVQLVQSGAEVKKPGESLKISCKGSGYSFTTYWLGWVRQMPGKGLDWIGIMSPVDSDIRYSPSFQGQVTMSVDKSITTAYLQWNSLKASDTAMYYCARRRPGQGYFDFWGQGTLVTVSS
VL: DIQMTQSPSSLSASVGDRVTITCRASQGISSWLAWYQQKPEKAPKSLIYAASSLQSGVPSRFSGSGSGTDFTLTISSLQPEDFATYYCQQYNIYPYTFGQGTKLEIK
With B3, in the experiment with human HSP70, the “Norm (signal over AdalimumAb)” value was 3.71 fold.
